Results as given in patent US20250108100A1, “C-TERMINAL FRAGMENT OF APOLIPOPROTEIN E AND APPLICATION THEREOF IN INHIBITING y-SECRETASE ACTIVITY” (SYNPHATEC (SHANGHAI) BIOPHARMACEUTICAL TECHNOLOGY CO., LTD., priority 2022, published 2025).

B1: CT ND3CD12: SEQ ID NO: 27; ApoE CT minus 3 N-terminal and 12 C-terminal residues (protein)
chain: EEMGSRTRDRLDEVKEQVAEVRAKLEEQAQQIRLQAEAFQARLKSWFEPLVEDMQRQWAGLVEKVQAAV
B2: CT ND3CD13: SEQ ID NO: 28; ApoE CT minus 3 N-terminal and 13 C-terminal residues (protein)
chain: EEMGSRTRDRLDEVKEQVAEVRAKLEEQAQQIRLQAEAFQARLKSWFEPLVEDMQRQWAGLVEKVQAA
B3: CT CD10: SEQ ID NO: 24; ApoE CT with 10 C-terminal amino acids deleted (protein)
chain: ARMEEMGSRTRDRLDEVKEQVAEVRAKLEEQAQQIRLQAEAFQARLKSWFEPLVEDMQRQWAGLVEKVQAAVGT
B4: CT NA4: SEQ ID NO: 16; ApoE CT with 4 original ApoE residues added to the N-terminus (protein)
chain: ERLRARMEEMGSRTRDRLDEVKEQVAEVRAKLEEQAQQIRLQAEAFQARLKSWFEPLVEDMQRQWAGLVEKVQAAVGTSAAPVPSDNH
B5: CT ND3: SEQ ID NO: 20; ApoE CT with 3 N-terminal amino acids deleted (protein)
chain: EEMGSRTRDRLDEVKEQVAEVRAKLEEQAQQIRLQAEAFQARLKSWFEPLVEDMQRQWAGLVEKVQAAVGTSAAPVPSDNH
B6: CT ND3CD15: SEQ ID NO: 30; ApoE CT minus 3 N-terminal and 15 C-terminal residues (protein)
chain: EEMGSRTRDRLDEVKEQVAEVRAKLEEQAQQIRLQAEAFQARLKSWFEPLVEDMQRQWAGLVEKVQ
B7: CT ND1: SEQ ID NO: 18; ApoE CT with 1 N-terminal amino acid deleted (protein)
chain: RMEEMGSRTRDRLDEVKEQVAEVRAKLEEQAQQIRLQAEAFQARLKSWFEPLVEDMQRQWAGLVEKVQAAVGTSAAPVPSDNH
B8: CT ND5: SEQ ID NO: 22; ApoE CT with 5 N-terminal amino acids deleted (protein)
chain: MGSRTRDRLDEVKEQVAEVRAKLEEQAQQIRLQAEAFQARLKSWFEPLVEDMQRQWAGLVEKVQAAVGTSAAPVPSDNH
B9: CT ND3CD20: SEQ ID NO: 31; ApoE CT minus 3 N-terminal and 20 C-terminal residues (protein)
chain: EEMGSRTRDRLDEVKEQVAEVRAKLEEQAQQIRLQAEAFQARLKSWFEPLVEDMQRQWAGL
B10: CT NA1: SEQ ID NO: 13; ApoE CT with 1 original ApoE residue added to the N-terminus (protein)
chain: RARMEEMGSRTRDRLDEVKEQVAEVRAKLEEQAQQIRLQAEAFQARLKSWFEPLVEDMQRQWAGLVEKVQAAVGTSAAPVPSDNH
B11: CT NA5: SEQ ID NO: 17; ApoE CT with 5 original ApoE residues added to the N-terminus (protein)
chain: GERLRARMEEMGSRTRDRLDEVKEQVAEVRAKLEEQAQQIRLQAEAFQARLKSWFEPLVEDMQRQWAGLVEKVQAAVGTSAAPVPSDNH
B12: CT ND3CD14: SEQ ID NO: 29; ApoE CT minus 3 N-terminal and 14 C-terminal residues (protein)
chain: EEMGSRTRDRLDEVKEQVAEVRAKLEEQAQQIRLQAEAFQARLKSWFEPLVEDMQRQWAGLVEKVQA
B13: CT NA2: SEQ ID NO: 14; ApoE CT with 2 original ApoE residues added to the N-terminus (protein)
chain: LRARMEEMGSRTRDRLDEVKEQVAEVRAKLEEQAQQIRLQAEAFQARLKSWFEPLVEDMQRQWAGLVEKVQAAVGTSAAPVPSDNH
B14: CT ND4: SEQ ID NO: 21; ApoE CT with 4 N-terminal amino acids deleted (protein)
chain: EMGSRTRDRLDEVKEQVAEVRAKLEEQAQQIRLQAEAFQARLKSWFEPLVEDMQRQWAGLVEKVQAAVGTSAAPVPSDNH
B15: CT ND3CD10: SEQ ID NO: 25; ApoE CT minus 3 N-terminal and 10 C-terminal residues (protein)
chain: EEMGSRTRDRLDEVKEQVAEVRAKLEEQAQQIRLQAEAFQARLKSWFEPLVEDMQRQWAGLVEKVQAAVGT
B16: CT CD5: SEQ ID NO: 23; ApoE CT with 5 C-terminal amino acids deleted (protein)
chain: ARMEEMGSRTRDRLDEVKEQVAEVRAKLEEQAQQIRLQAEAFQARLKSWFEPLVEDMQRQWAGLVEKVQAAVGTSAAPV
B17: CT NA3: SEQ ID NO: 15; ApoE CT with 3 original ApoE residues added to the N-terminus (protein)
chain: RLRARMEEMGSRTRDRLDEVKEQVAEVRAKLEEQAQQIRLQAEAFQARLKSWFEPLVEDMQRQWAGLVEKVQAAVGTSAAPVPSDNH
B18: CT ND2: SEQ ID NO: 19; ApoE CT with 2 N-terminal amino acids deleted (protein)
chain: MEEMGSRTRDRLDEVKEQVAEVRAKLEEQAQQIRLQAEAFQARLKSWFEPLVEDMQRQWAGLVEKVQAAVGTSAAPVPSDNH
B19: CT ND3CD11: SEQ ID NO: 26; ApoE CT minus 3 N-terminal and 11 C-terminal residues (protein)
chain: EEMGSRTRDRLDEVKEQVAEVRAKLEEQAQQIRLQAEAFQARLKSWFEPLVEDMQRQWAGLVEKVQAAVG

Each molecule was assayed on human APP and β-secretase co-expressed in HEK 293T cells (assay: HEK 293T cells co-expressing APP and β-secretase (BACE1): Aβ ELISA and β-CTF Western blot). Details: APP and β-secretase co-expressed, ELISA, vs GFP control.
Type: cell-based
Protocol: The experiment was performed according to the standard procedure in the ELISA analysis kit of Invitrogen Company. • a) The target protein was expressed in HEK 293T cell line. Cells were subcultured one day before transfection, and transfection was performed when the degree of cell adhesion reached 70%-80%. The transfection reagent was lipofectamine2000 (ThermoFisher). • b) 4-6 hours post transfection, medium were replaced with fresh cell culture medium. • c) 36-48 hours post transfection, the cell culture medium was collected, and then the ELISA process was performed or the cell culture medium was frozen in a −80° C. refrigerator. • d) 50 μl of standard samples and experimental samples were added to each well of the 96-well plate. • e) 50 μl of human-derived Aβ40 or Aβ42 or mouse-derived Aβ40 detection antibody was added to each well of the 96-well plate. • f) The above samples were shaken gently and placed at room temperature for 3 hours. • g) The liquid in the well were removed, and the plate was washed 4 times with 1× wash buffer. • h) 100 μl of the buffer containing 1× anti-Rabbit IgG HRP was added. • i) The plate was shaken gently and placed at room temperature for […]. • j) The liquid in the well were removed, and the well was washed 4 times with 1× wash buffer. • k) 100 μl of Stabilized Chromogen was added to each well, and the plate was placed in the dark for 30 minutes at room temperature. • l) 100 μl of Stop Solution was added to each well. • m) The absorbance at 450 nm was measured with a microplate reader. 2.4 qRT-PCR
48 hours after transfection of HEK 293T cells and N2A cells, or 4.5 days after lentivirus infection of neurons, media and lysates were collected. Aβ40 and Aβ42 in the culture medium and cell lysates were detected by an Aβ ELISA kit as indicated in the protocol. (Invitrogen Technology; KHB3481 for human Aβ40, KHB3441 for human Aβ42 and KMB3481 for mouse Aβ40).
Data were analyzed by GraphPad Prism software (v6) using unpaired, paired, or one-sample t-tests. Aβ40 and Aβ42 levels were normalized to the corresponding GFP controls. α-CTF levels were normalized to FL-APP and corresponding GFP controls. All data are represented as mean±SEM. Statistical significance was defined as p<0.05. One, two, three and four stars (*) in the graph indicate p-values <0.05, <0.01, <0.001 and <0.0001, respectively.

Row | Molecule | production of Aβ40
1 | B1 | can still significantly reduce Aβ40
2 | B2 | can still significantly reduce Aβ40
3 | B3 | still reduce the production of Aβ
4 | B4 | completely lost the ability to reduce Aβ
5 | B5 | can still reduce Aβ40
6 | B6 | can still significantly reduce Aβ40
7 | B7 | can still reduce Aβ40
8 | B8 | can still reduce Aβ40
9 | B9 | can still significantly reduce Aβ40
10 | B10 | still reduces the production of Aβ40
11 | B11 | completely lost the ability to reduce Aβ
12 | B12 | can still significantly reduce Aβ40
13 | B13 | completely lost the ability to reduce Aβ
14 | B14 | can still reduce Aβ40
15 | B15 | can still significantly reduce Aβ40
16 | B16 | still reduce the production of Aβ
17 | B17 | completely lost the ability to reduce Aβ
18 | B18 | can still reduce Aβ40
19 | B19 | can still significantly reduce Aβ40
